From article PMC2654718 come the findings set out here.

Experiment [1] addresses MBP-VDR-LBDmt (human). Description: ITC. A general note: ITC needs no label: the signal is the heat of the interaction.
The target in experiment [2] is MBP-VDR-LBDmt (human). Description: pull-down.

A value given as a limit tells only on which side of the number the result lay.

What is called Kd is the free concentration of one partner at which half of the binding sites on the other are occupied at equilibrium, for simple one-to-one binding. A high value points to a looser complex. The term stoichiometry N denotes the number of molecules, sites or subunits per partner or assembly.

In the experiment with MBP-VDR-LBDmt (human) [1], SRC2-3 peptide, unlabeled gave a Kd of 174 nM, a dH of -6.7 kcal/mol and a stoichiometry N of 1.02.
In the experiment with MBP-VDR-LBDmt (human) [1], SRC2-3 peptide, Texas Red labeled showed a Kd of 285 nM, a dH of -2.2 kcal/mol and a stoichiometry N of 0.93.
SRC3-1 peptide, unlabeled: the peptide concentration at which inhibition of SRC2-VDR binding was observed in the experiment with MBP-VDR-LBDmt (human) [2] was above 50 µM.
